We go through 16 molecules from patent US20230340111A1 (published 2023).

Positions count from the first letter of the chain named. In names and notes the source's numbering stands.

Test [1] addresses T1, human FOLR1 recombinant protein (extracellular domain of human folate receptor alpha) (human, UniProt P15328 25-233).
T1 construct: Bought recombinant protein (Sino Biological); also called hFOLR1; FR-alpha
The test can be described thus: SPR (Biacore T200), single cycle kinetics, human FOLR1 immobilized on CM5, untagged VHH as analyte, 1:1 fit. Here is the method: The antigen-binding kinetic parameters of untagged, purified VHH A1 and A2 variants were determined by surface plasmon resonance on immobilized human FOLR1 recombinant protein with a Biacore T200 instrument (GE Healthcare). The human FOLR1 recombinant protein (Sino Biological) was immobilized in 10 mM sodium acetate, pH 5.5 on a CM5 chip (GE Healthcare) via amine coupling chemistry to 250 RU. VHHs were analyzed using single cycle kinetics with a threefold serial dilution in HBS (5 nM-0.062 nM) and an analyte flow rate of 40 µl/min. The association phase took 5× 450 s and the dissociation phase 900 s. Regeneration was done by a single injection of 50 mM glycine-HCl, pH 2.5, 2 M MgCl₂ for 30 s at 30 µl/min, followed by 120 s stabilization. Binding curves were fitted using a ‘1:1 (antigen:analyte)’ binding model in Biacore T200 evaluation software.

Test [2] has as its target T2, human FOLR1 expressed on SKOV-3 ovarian carcinoma cells (human, UniProt P15328 25-234).
T2 construct: Naturally expressed receptor on SKOV-3 cells; also called human FOLR1pos SKOV-3 cancer cells; human FOLR1-expressing cell line SKOV-3
The test can be described thus: saturation binding of 131I-labelled untagged VHH on SKOV-3 cells. On the procedure:
In a first part, their in vitro behaviour was assessed by means of investigating their cellular binding and retention over time. The binding potential of the resulting radioconjugates was assessed to confirm that this was not affected by the introduction of ¹³¹I-SGMIB into the amino acid sequence of the different VHHs. To this, human FOLR1^pos SKOV-3 cancer cells were incubated with serial dilutions with concentrations ranging from 0 to 300 nM of the different ¹³¹I-labelled, His₆ tagged VHHs. A 100-fold excess of the corresponding unlabeled VHH was added in parallel to saturate the human FOLR1 receptors expressed on cancer cells, to assess non-specific binding.
A1 and A2 parental untagged VHH’s and derivatives were radiolabeled with theranostic isotope ¹³¹I, as described in example 3, and subjected to saturation binding studies as described in example 6.

T2 sequence (P15328 25-234 limits assumed): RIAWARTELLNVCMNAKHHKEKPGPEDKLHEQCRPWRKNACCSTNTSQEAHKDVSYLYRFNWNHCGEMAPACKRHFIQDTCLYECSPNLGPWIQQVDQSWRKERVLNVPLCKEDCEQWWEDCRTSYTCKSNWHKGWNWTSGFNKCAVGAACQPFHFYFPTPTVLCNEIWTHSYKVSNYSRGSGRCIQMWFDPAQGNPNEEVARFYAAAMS
T1 sequence (P15328 25-233): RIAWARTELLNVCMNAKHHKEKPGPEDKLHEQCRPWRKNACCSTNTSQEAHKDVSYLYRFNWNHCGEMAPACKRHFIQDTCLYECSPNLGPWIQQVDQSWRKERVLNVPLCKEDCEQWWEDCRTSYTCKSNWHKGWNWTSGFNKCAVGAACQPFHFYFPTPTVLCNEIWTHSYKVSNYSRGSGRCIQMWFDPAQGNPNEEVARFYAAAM

B1: untagged N64E variant of VHH A1 (VHH)
VHH: DVQLVESGGGLVQPGGSLRLSCAASESIFSRNHMSWYRQAPGKQRELAAIITSDGETNYPDSVKGRFTISRDNAKNTVYLQMNSLKPEDTAVYYCNTFGRSVAGFYDYWGQGTQVTVSS
notes: also called A1-N64E
In general, Kd refers to the concentration at which binding is half-saturated. In general, koff refers to the rate constant with which the complex falls apart. A word on the kon: it is the second-order rate constant of association. As for B1, in test [1], the Kd was 0.092 nM, the koff was 0.00017 s⁻¹ and the kon turned out to be 1.8e+06 M⁻¹ s⁻¹.

B2: 131I-labeled untagged A1-D59E (VHH)
VHH: B1 VHH with D54E, E56N
modifications: [131I]SGMIB conjugated to lysine side-chain amine groups
As a reminder, the EC50 is the concentration at which the effect is half-maximal. High values mean lower potency in that assay, low ones higher potency in that assay. For B2, the EC50 in test [2] worked out at 2.1 nM.

B3: untagged N64Q variant of VHH A1 (VHH)
VHH: B1 VHH with E56Q
notes: also called A1-N64Q
As to B3, in test [1], the Kd came to 0.036 nM, the koff was 8.2e-05 s⁻¹ and the kon was 2.3e+06 M⁻¹ s⁻¹.

B4: untagged D59E variant of VHH A1 (VHH)
VHH: B1 VHH with D54E, E56N
notes: also called A1-D59E
As to B4, in test [1], the Kd was 0.083 nM, the dissociation rate constant (koff) came out at 0.00019 s⁻¹ and the kon came to 2.3e+06 M⁻¹ s⁻¹.

B5: 131I-labeled untagged A1-N64E (VHH)
VHH: B1 VHH
modifications: [131I]SGMIB conjugated to lysine side-chain amine groups
In test [2], B5 registered an EC50 of 2.5 nM.

B6: untagged N64S variant of VHH A1 (VHH)
VHH: B1 VHH with E56S
notes: also called A1-N64S
As for B6, in test [1], the Kd came to 0.057 nM, the koff came to 0.00014 s⁻¹ and the kon was determined as 2.5e+06 M⁻¹ s⁻¹.

B7: 131I-labeled untagged A1-N64S (VHH)
VHH: B1 VHH with E56S
modifications: [131I]SGMIB conjugated to lysine side-chain amine groups
In test [2], B7 came in with an EC50 of 0.9 nM.

B8: 131I-labeled untagged A1-N64Q (VHH)
VHH: B1 VHH with E56Q
modifications: [131I]SGMIB conjugated to lysine side-chain amine groups
B8 yielded an EC50 in test [2] of 2.3 nM.

B9: untagged E90Q variant of VHH A2 (VHH)
VHH: DVQLVESGGGLVQAGGSLRLSCAADEMKFSNYDLAWYRRAPGKQRELAAIITSGGSTNYPDSVKGRFTISRDNAKNTVYLQMNSLKPEDTAVYYCNALRPWPQFSDYWGQGTQVTVSS
notes: also called A2-E90Q
Regarding B9, in test [1], the Kd was determined as 0.25 nM, the koff came out at 0.0006 s⁻¹ and the kon is 2.3e+06 M⁻¹ s⁻¹.

B10: 131I-labeled untagged A2-E90Q (VHH)
VHH: B9 VHH
modifications: [131I]SGMIB conjugated to lysine side-chain amine groups
In the case of B10, a half-maximal effect in test [2] (EC50) was put at 2.9 nM.

B11: 131I-labeled untagged A2-K29Q-E90Q (VHH)
VHH: B9 VHH with K28Q
modifications: [131I]SGMIB conjugated to lysine side-chain amine groups
Turning to B11, the EC50 in test [2] is 5.1 nM.

B12: untagged M28T-E90Q variant of VHH A2 (VHH)
VHH: B9 VHH with M27T
notes: also called A2-M28T-E90Q; A2-M28TE90Q
With B12, in test [1], the Kd was 0.56 nM, the koff was determined as 0.0013 s⁻¹ and the kon worked out at 2.3e+06 M⁻¹ s⁻¹.

B13: untagged K29R-E90Q variant of VHH A2 (VHH)
VHH: B9 VHH with K28R
notes: also called A2-K29R-E90Q
In the case of B13, in test [1], the Kd is 0.29 nM, the koff was 0.00053 s⁻¹ and the kon came to 1.9e+06 M⁻¹ s⁻¹.

B14: 131I-labeled untagged A2-K29R-E90Q (VHH)
VHH: B9 VHH with K28R
modifications: [131I]SGMIB conjugated to lysine side-chain amine groups
For B14, a half-maximal response in test [2] (EC50) required 3.6 nM.

B15: untagged K29Q-E90Q variant of VHH A2 (VHH)
VHH: B9 VHH with K28Q
notes: also called A2-K29Q-E90Q
On to B15, for which, in test [1], the dissociation constant Kd worked out at 0.27 nM, the koff was 0.00048 s⁻¹ and the kon is 1.8e+06 M⁻¹ s⁻¹.

B16: untagged M28A-E90Q variant of VHH A2 (VHH)
VHH: B9 VHH with M27A
notes: also called A2-M28A-E90Q
Take B16: in test [1], the Kd was 0.81 nM, the koff was 0.0016 s⁻¹ and the kon was found to be 2e+06 M⁻¹ s⁻¹.
